Measured values from IntAct's records for PubMed 21131967.

B1: Transcription factor p65 (Mus musculus), Q04207 (parent)
chain: MDDLFPLIFPSEPAQASGPYVEIIEQPKQRGMRFRYKCEGRSAGSIPGERSTDTTKTHPTIKINGYTGPGTVRISLVTKDPPHRPHPHELVGKDCRDGYYEADLCPDRSIHSFQNLGIQCVKKRDLEQAISQRIQTNNNPFHVPIEEQRGDYDLNAVRLCFQVTVRDPAGRPLLLTPVLSHPIFDNRAPNTAELKICRVNRNSGSCLGGDEIFLLCDKVQKEDIEVYFTGPGWEARGSFSQADVHRQVAIVFRTPPYADPSLQAPVRVSMQLRRPSDRELSEPMEFQYLPDTDDRHRIEEKRKRTYETFKSIMKKSPFNGPTEPRPPTRRIAVPTRNSTSVPKPAPQPYTFPASLSTINFDEFSPMLLPSGQISNQALALAPSSAPVLAQTMVPSSAMVPLAQPPAPAPVLTPGPPQSLSAPVPKSTQAGEGTLSEALLHLQFDADEDLGALLGNSTDPGVFTDLASVDNSEFQQLLNQGVSMSHSTAEPMLMEYPEAITRLVTGSQRPPDPAPTPLGTSGLPNGLSGDEDFSSIADMDFSALLSQISS
partner: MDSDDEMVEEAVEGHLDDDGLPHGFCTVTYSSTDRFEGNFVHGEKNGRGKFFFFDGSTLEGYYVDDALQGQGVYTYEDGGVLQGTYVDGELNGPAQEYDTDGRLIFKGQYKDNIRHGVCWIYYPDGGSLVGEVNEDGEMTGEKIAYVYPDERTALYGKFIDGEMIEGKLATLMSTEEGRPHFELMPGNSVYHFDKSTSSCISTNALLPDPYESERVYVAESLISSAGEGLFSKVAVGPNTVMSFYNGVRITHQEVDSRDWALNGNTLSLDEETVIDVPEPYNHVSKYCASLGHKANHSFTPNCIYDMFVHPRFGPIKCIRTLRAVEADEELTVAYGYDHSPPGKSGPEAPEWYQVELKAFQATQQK
B2: Transcription factor p65 (Mus musculus), Q04207 (parent)
chain: B1 chain
partner: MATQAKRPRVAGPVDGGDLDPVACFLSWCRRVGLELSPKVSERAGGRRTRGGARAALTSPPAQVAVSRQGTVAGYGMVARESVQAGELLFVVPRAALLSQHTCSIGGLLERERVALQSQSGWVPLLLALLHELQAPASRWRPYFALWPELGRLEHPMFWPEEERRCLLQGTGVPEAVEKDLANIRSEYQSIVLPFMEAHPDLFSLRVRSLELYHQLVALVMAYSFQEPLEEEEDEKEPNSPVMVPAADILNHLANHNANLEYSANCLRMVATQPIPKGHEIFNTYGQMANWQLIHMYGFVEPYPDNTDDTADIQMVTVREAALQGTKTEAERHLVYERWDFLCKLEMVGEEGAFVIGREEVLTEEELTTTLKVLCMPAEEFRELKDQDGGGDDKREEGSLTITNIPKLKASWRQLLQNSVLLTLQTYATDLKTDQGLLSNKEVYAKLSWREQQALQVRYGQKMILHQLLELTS
B3: N-lysine methyltransferase SETD6 (Homo sapiens), Q8TBK2 (parent)
chain: B2 partner

Variants of: B1
Conditions: with setd7_human SETD7, Q8WTS6

Variant | effect of a mutation on the interaction
K310R | disrupting interaction

Variants of: B2
Conditions: with setd6_human SETD6, Q8TBK2

Variant | effect of a mutation on the interaction
K310R | disrupting interaction

Variants of: B3
Conditions: with tf65_mouse Rela, Q04207

Variant | effect of a mutation on the interaction
Y285A | disrupting interaction
